Assay results as given in the supplement of paper PMC6757056.
± gives the standard deviation of the averaged measurements.

B1: library; a variant is named by its letters at N, in order (parent)
chain: GCUGUCACCGAGAAACUGUGAAGUAUAUCUUAAACCUGGGCACUUAAAAGAUAUAUGGAGUUAGUAGUGCAACCUGCUCGGUCUGAUGAGUCCNNNNNNGGACGAAACAGC

Experiments:
cyclic di-GMP [1] = variants of: B1; assay: normalized RNA/DNA level without ligand (relative to sTRSVctl = 100) (log10 (% of sTRSVctl)); HEK293T; ligand: cyclic di-GMP (c-di-GMP-II aptamer); higher = less ribozyme self-cleavage, higher mRNA level; details: reporter: mCherry (pCS4076), ligand present: no
Summary of the method: (§1)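 Total RNA, extracted with EDTA 72 h after HEK293T cells were transfected with 4 µg per 6-well well of reporter-linked ribozyme switch library plasmids, was reverse-transcribed, amplified, barcoded and sequenced. Ligand, if used, was added 1 h before transfection. RNA level was derived from RNA reads divided by DNA reads and normalized to a spiked-in non-cleaving sequence or to the top sequences. This was multiplied by 100 and log10-transformed, with the top set of 25 sequences and a ≥100 DNA read minimum.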

cyclic di-GMP [2] = variants of: B1; assay: normalized RNA/DNA level with ligand (relative to sTRSVctl = 100) (log10 (% of sTRSVctl)); HEK293T; ligand: cyclic di-GMP (c-di-GMP-II aptamer); ligand concentration (+) RNA-Seq: 1 mM; higher = less ribozyme self-cleavage, higher mRNA level; details: reporter: mCherry (pCS4076), ligand present: yes
Summary of the method: as §1

## GUAGGC
Cyclic di-GMP [1]
  normalized RNA/DNA level without ligand (log10): 1.6 ± 0.064
Cyclic di-GMP [2]
  normalized RNA/DNA level with ligand (log10): 1.78 ± 0.048

## AUCCGU
Cyclic di-GMP [1]
  normalized RNA/DNA level without ligand (log10): 1.74 ± 0.041
Cyclic di-GMP [2]
  normalized RNA/DNA level with ligand (log10): 1.89 ± 0.12

## CAUCUU
Cyclic di-GMP [1]
  normalized RNA/DNA level without ligand (log10): 1.56 ± 0.04
Cyclic di-GMP [2]
  normalized RNA/DNA level with ligand (log10): 1.75 ± 0.1

## UACCAG
Cyclic di-GMP [1]
  normalized RNA/DNA level without ligand (log10): 1.701 ± 0.003
Cyclic di-GMP [2]
  normalized RNA/DNA level with ligand (log10): 1.83 ± 0.11

## CUUGGU
Cyclic di-GMP [1]
  normalized RNA/DNA level without ligand (log10): 1.76 ± 0.031
Cyclic di-GMP [2]
  normalized RNA/DNA level with ligand (log10): 1.84 ± 0.11

## AGCGAC
Cyclic di-GMP [1]
  normalized RNA/DNA level without ligand (log10): 1.65 ± 0.052
Cyclic di-GMP [2]
  normalized RNA/DNA level with ligand (log10): 1.81 ± 0.077

## UGGAUC
Cyclic di-GMP [1]
  normalized RNA/DNA level without ligand (log10): 1.699 ± 0.0067
Cyclic di-GMP [2]
  normalized RNA/DNA level with ligand (log10): 1.88 ± 0.097

## UUCUUC
Cyclic di-GMP [1]
  normalized RNA/DNA level without ligand (log10): 1.78 ± 0.05
Cyclic di-GMP [2]
  normalized RNA/DNA level with ligand (log10): 1.89 ± 0.16

## ACCGCG
Cyclic di-GMP [1]
  normalized RNA/DNA level without ligand (log10): 1.72 ± 0.075
Cyclic di-GMP [2]
  normalized RNA/DNA level with ligand (log10): 1.87 ± 0.099

## GCUAUU
Cyclic di-GMP [1]
  normalized RNA/DNA level without ligand (log10): 1.568 ± 0.0067
Cyclic di-GMP [2]
  normalized RNA/DNA level with ligand (log10): 1.74 ± 0.12

## UGCGCC
Cyclic di-GMP [1]
  normalized RNA/DNA level without ligand (log10): 1.79 ± 0.046
Cyclic di-GMP [2]
  normalized RNA/DNA level with ligand (log10): 1.92 ± 0.094

## UCGCUA
Cyclic di-GMP [1]
  normalized RNA/DNA level without ligand (log10): 1.46 ± 0.026
Cyclic di-GMP [2]
  normalized RNA/DNA level with ligand (log10): 1.7 ± 0.047

## GCAGUC
Cyclic di-GMP [1]
  normalized RNA/DNA level without ligand (log10): 1.31 ± 0.064
Cyclic di-GMP [2]
  normalized RNA/DNA level with ligand (log10): 1.51 ± 0.1

## CUUCAC
Cyclic di-GMP [1]
  normalized RNA/DNA level without ligand (log10): 1.734 ± 0.0076
Cyclic di-GMP [2]
  normalized RNA/DNA level with ligand (log10): 1.86 ± 0.088

## UUAACG
Cyclic di-GMP [1]
  normalized RNA/DNA level without ligand (log10): 1.81 ± 0.054
Cyclic di-GMP [2]
  normalized RNA/DNA level with ligand (log10): 1.88 ± 0.11

## AAAAGU
Cyclic di-GMP [1]
  normalized RNA/DNA level without ligand (log10): 1.52 ± 0.071
Cyclic di-GMP [2]
  normalized RNA/DNA level with ligand (log10): 1.71 ± 0.057

## UUAUUU
Cyclic di-GMP [1]
  normalized RNA/DNA level without ligand (log10): 1.75 ± 0.06
Cyclic di-GMP [2]
  normalized RNA/DNA level with ligand (log10): 1.86 ± 0.17

## UCCGAA
Cyclic di-GMP [1]
  normalized RNA/DNA level without ligand (log10): 1.48 ± 0.015
Cyclic di-GMP [2]
  normalized RNA/DNA level with ligand (log10): 1.69 ± 0.17

## CAUUAC
Cyclic di-GMP [1]
  normalized RNA/DNA level without ligand (log10): 1.6236 ± 0.00067
Cyclic di-GMP [2]
  normalized RNA/DNA level with ligand (log10): 1.79 ± 0.13

## AUAUUA
Cyclic di-GMP [1]
  normalized RNA/DNA level without ligand (log10): 1.56 ± 0.05
Cyclic di-GMP [2]
  normalized RNA/DNA level with ligand (log10): 1.76 ± 0.057

## UGUUGU
Cyclic di-GMP [1]
  normalized RNA/DNA level without ligand (log10): 1.72 ± 0.015
Cyclic di-GMP [2]
  normalized RNA/DNA level with ligand (log10): 1.9 ± 0.061

## GUAGUU
Cyclic di-GMP [1]
  normalized RNA/DNA level without ligand (log10): 1.61 ± 0.043
Cyclic di-GMP [2]
  normalized RNA/DNA level with ligand (log10): 1.75 ± 0.061

## AUUCAA
Cyclic di-GMP [1]
  normalized RNA/DNA level without ligand (log10): 1.58 ± 0.032
Cyclic di-GMP [2]
  normalized RNA/DNA level with ligand (log10): 1.77 ± 0.15

## AGAGAG
Cyclic di-GMP [1]
  normalized RNA/DNA level without ligand (log10): 1.46 ± 0.09
Cyclic di-GMP [2]
  normalized RNA/DNA level with ligand (log10): 1.64 ± 0.14

## GCGCGU
Cyclic di-GMP [1]
  normalized RNA/DNA level without ligand (log10): 1.59 ± 0.1
Cyclic di-GMP [2]
  normalized RNA/DNA level with ligand (log10): 1.75 ± 0.044

## ACGAGC
Cyclic di-GMP [1]
  normalized RNA/DNA level without ligand (log10): 1.62 ± 0.049
Cyclic di-GMP [2]
  normalized RNA/DNA level with ligand (log10): 1.76 ± 0.084

## CCUUUG
Cyclic di-GMP [1]
  normalized RNA/DNA level without ligand (log10): 1.59 ± 0.078
Cyclic di-GMP [2]
  normalized RNA/DNA level with ligand (log10): 1.77 ± 0.053

## CUUCCG
Cyclic di-GMP [1]
  normalized RNA/DNA level without ligand (log10): 1.761 ± 0.017
Cyclic di-GMP [2]
  normalized RNA/DNA level with ligand (log10): 1.89 ± 0.1

## UGAAAC
Cyclic di-GMP [1]
  normalized RNA/DNA level without ligand (log10): 1.705 ± 0.017
Cyclic di-GMP [2]
  normalized RNA/DNA level with ligand (log10): 1.84 ± 0.062

## GUCGCC
Cyclic di-GMP [1]
  normalized RNA/DNA level without ligand (log10): 1.77 ± 0.036
Cyclic di-GMP [2]
  normalized RNA/DNA level with ligand (log10): 1.89 ± 0.12

## CCAUUA
Cyclic di-GMP [1]
  normalized RNA/DNA level without ligand (log10): 1.41 ± 0.066
Cyclic di-GMP [2]
  normalized RNA/DNA level with ligand (log10): 1.6 ± 0.093

## GGCUUA
Cyclic di-GMP [1]
  normalized RNA/DNA level without ligand (log10): 1.61 ± 0.074
Cyclic di-GMP [2]
  normalized RNA/DNA level with ligand (log10): 1.79 ± 0.12

## CGCAAC
Cyclic di-GMP [1]
  normalized RNA/DNA level without ligand (log10): 1.62 ± 0.05
Cyclic di-GMP [2]
  normalized RNA/DNA level with ligand (log10): 1.78 ± 0.12

## GCUAUC
Cyclic di-GMP [1]
  normalized RNA/DNA level without ligand (log10): 1.53 ± 0.045
Cyclic di-GMP [2]
  normalized RNA/DNA level with ligand (log10): 1.66 ± 0.13

## UCAUGC
Cyclic di-GMP [1]
  normalized RNA/DNA level without ligand (log10): 1.71 ± 0.081
Cyclic di-GMP [2]
  normalized RNA/DNA level with ligand (log10): 1.89 ± 0.045

## ACACAC
Cyclic di-GMP [1]
  normalized RNA/DNA level without ligand (log10): 1.633 ± 0.0097
Cyclic di-GMP [2]
  normalized RNA/DNA level with ligand (log10): 1.81 ± 0.09

## CUCACA
Cyclic di-GMP [1]
  normalized RNA/DNA level without ligand (log10): 1.66 ± 0.033
Cyclic di-GMP [2]
  normalized RNA/DNA level with ligand (log10): 1.83 ± 0.13

## CGUCCC
Cyclic di-GMP [1]
  normalized RNA/DNA level without ligand (log10): 1.75 ± 0.029
Cyclic di-GMP [2]
  normalized RNA/DNA level with ligand (log10): 1.9 ± 0.086

## AACCCA
Cyclic di-GMP [1]
  normalized RNA/DNA level without ligand (log10): 1.621 ± 0.0091
Cyclic di-GMP [2]
  normalized RNA/DNA level with ligand (log10): 1.81 ± 0.13

## UCUAAG
Cyclic di-GMP [1]
  normalized RNA/DNA level without ligand (log10): 1.64 ± 0.079
Cyclic di-GMP [2]
  normalized RNA/DNA level with ligand (log10): 1.82 ± 0.072

## UACGGG
Cyclic di-GMP [1]
  normalized RNA/DNA level without ligand (log10): 1.62 ± 0.048
Cyclic di-GMP [2]
  normalized RNA/DNA level with ligand (log10): 1.79 ± 0.09

## UGACGU
Cyclic di-GMP [1]
  normalized RNA/DNA level without ligand (log10): 1.57 ± 0.12
Cyclic di-GMP [2]
  normalized RNA/DNA level with ligand (log10): 1.74 ± 0.13

## UGAAAA
Cyclic di-GMP [1]
  normalized RNA/DNA level without ligand (log10): 1.73 ± 0.024
Cyclic di-GMP [2]
  normalized RNA/DNA level with ligand (log10): 1.82 ± 0.1

## CAUGUG
Cyclic di-GMP [1]
  normalized RNA/DNA level without ligand (log10): 1.71 ± 0.022
Cyclic di-GMP [2]
  normalized RNA/DNA level with ligand (log10): 1.85 ± 0.092

## AGCUCU
Cyclic di-GMP [1]
  normalized RNA/DNA level without ligand (log10): 1.76 ± 0.096
Cyclic di-GMP [2]
  normalized RNA/DNA level with ligand (log10): 1.88 ± 0.17

## ACACAU
Cyclic di-GMP [1]
  normalized RNA/DNA level without ligand (log10): 1.46 ± 0.06
Cyclic di-GMP [2]
  normalized RNA/DNA level with ligand (log10): 1.67 ± 0.092

## GACGGG
Cyclic di-GMP [1]
  normalized RNA/DNA level without ligand (log10): 1.76 ± 0.027
Cyclic di-GMP [2]
  normalized RNA/DNA level with ligand (log10): 1.85 ± 0.062

## UUUAGG
Cyclic di-GMP [1]
  normalized RNA/DNA level without ligand (log10): 1.87 ± 0.057
Cyclic di-GMP [2]
  normalized RNA/DNA level with ligand (log10): 1.96 ± 0.14

## UCGUGU
Cyclic di-GMP [1]
  normalized RNA/DNA level without ligand (log10): 1.617 ± 0.0058
Cyclic di-GMP [2]
  normalized RNA/DNA level with ligand (log10): 1.81 ± 0.1

## CUAGCA
Cyclic di-GMP [1]
  normalized RNA/DNA level without ligand (log10): 1.71 ± 0.064
Cyclic di-GMP [2]
  normalized RNA/DNA level with ligand (log10): 1.78 ± 0.13

## UUCCAA
Cyclic di-GMP [1]
  normalized RNA/DNA level without ligand (log10): 1.7 ± 0.037
Cyclic di-GMP [2]
  normalized RNA/DNA level with ligand (log10): 1.84 ± 0.13

## CUUAUG
Cyclic di-GMP [1]
  normalized RNA/DNA level without ligand (log10): 1.67 ± 0.022
Cyclic di-GMP [2]
  normalized RNA/DNA level with ligand (log10): 1.81 ± 0.1

## CAUACU
Cyclic di-GMP [1]
  normalized RNA/DNA level without ligand (log10): 1.51 ± 0.044
Cyclic di-GMP [2]
  normalized RNA/DNA level with ligand (log10): 1.7 ± 0.12

## UUCAGC
Cyclic di-GMP [1]
  normalized RNA/DNA level without ligand (log10): 1.78 ± 0.082
Cyclic di-GMP [2]
  normalized RNA/DNA level with ligand (log10): 1.9 ± 0.13

## GGUCAA
Cyclic di-GMP [1]
  normalized RNA/DNA level without ligand (log10): 1.4 ± 0.095
Cyclic di-GMP [2]
  normalized RNA/DNA level with ligand (log10): 1.64 ± 0.092

## GUGUGU
Cyclic di-GMP [1]
  normalized RNA/DNA level without ligand (log10): 1.595 ± 0.003
Cyclic di-GMP [2]
  normalized RNA/DNA level with ligand (log10): 1.77 ± 0.12

## GCUUGU
Cyclic di-GMP [1]
  normalized RNA/DNA level without ligand (log10): 1.577 ± 0.005
Cyclic di-GMP [2]
  normalized RNA/DNA level with ligand (log10): 1.75 ± 0.15

## CGAGAG
Cyclic di-GMP [1]
  normalized RNA/DNA level without ligand (log10): 1.72 ± 0.022
Cyclic di-GMP [2]
  normalized RNA/DNA level with ligand (log10): 1.84 ± 0.033
